The experiment deals with trimeric HIV-1 YU-2 gp140 Env (HIV-1 YU-2 (clade B), UniProt P35961, strain). Briefly: ELISA. Background: In an ELISA, binding on a coated surface is turned into a signal by an enzyme label.

B1: 8C chimeric mAb (bovine V regions, human IgG1/lambda constant regions) (antibody, V domains shown)
VH: QVQLRESGPSLVKPSQTLSLTCTVSGFSLSRYDVNWVRQAPGKALEWVGVISGDGITGYNPALKSRLSITKDNSKSQLSLSVSSVTPEDTATYYCESWVCVGGRDDVCHSDWGQGLLVTVSS
VL: QAVLTQPTSVSVALGQTAKITCSGDLVDEQYTQWYQQKPGQGPVMVIYKDSERPSGISDRFSGSNSGKTATLTISGAQTEDEADYYCHSADSSHAVFGSGTTLTV
On to B1, for which the binding result is listed as “no binding”.

(Values after publication PMC5384801 (mAbs, 2016).)
